Data as given in patent US20250059258A1.
Positions count from the first letter of the chain named.

B1: affinity ligand SEQ ID NO: 89 (designed binder)
chain: MGGGGSAAAGDEAQHWENQGAAYAARGDYDRAIEYYGRALELDPNNAWAWWELGVAYAARGDYDRAIEYYERALELDPDDATTWSRLGHAYAARGDYDRAIEYYERALELDPEDETARYLLEHARRARQGQAGQGGGSGLNDIFEAQKIEWHECHHHHHH
modifications: biotinylated (AviTag system)
B2: affinity ligand SEQ ID NO: 90 (designed binder)
chain: B1 chain with H15C, G37E, E105V
modifications: biotinylated (AviTag system)
B3: affinity ligand SEQ ID NO: 92 (designed binder)
chain: B1 chain with H15R, G37E, D43E, T83A, E102G, D114N
modifications: biotinylated (AviTag system)
B4: affinity ligand SEQ ID NO: 41 (designed binder)
chain: MAQAAAGDEAQRWETLGAAYAARGDYDRAIEYYQRALELDPNNAWAWWELGVAYAARGDYDRAIEYYQRALELDPDDAAAWRRLGHAYAARGDYDRAIEYYERALELDPEDELARRILEDARRARQGQAGQGGGSGLNDIFEAQKIEWHECHHHHHH
modifications: biotinylated (AviTag system)
B5: affinity ligand SEQ ID NO: 157 (designed binder)
chain: MGLAEAAAREAAARAADEAERWYDLGAAYAARGDYDRAIEYYQRALEHDPNDAWAWWELGVAYAARGDYDRAIEYYQRALELDTNNAVAWARLGIAYAARGDYDRAIEYYQRALELDPNNEVARGALEYARRARRHHHHHH
modifications: biotinylated (AviTag system)
B6: affinity ligand SEQ ID NO: 162 (designed binder)
chain: B5 chain with H48L, T84L, G125D
modifications: biotinylated (AviTag system)
B7: affinity ligand SEQ ID NO: 155 (designed binder)
chain: MGDEAERWYDLGAAYAARGDYDRAIEYYQRALEHDPNDAWAWWELGVAYAARGDYDRAIEYYQRALELDTNNAVAWARLGIAYAARGDYDRAIEYYQRALELDPNNEVARGALEYARRARRCHHHHHH
modifications: biotinylated (AviTag system)
B8: affinity ligand SEQ ID NO: 158 (designed binder)
chain: B7 chain with H34L, T70L, G111D
modifications: biotinylated (AviTag system)
B9: affinity ligand SEQ ID NO: 159 (designed binder)
chain: MGHHHHHHDEAERWYDLGAAYAARGDYDRAIEYYQRALEHDPNDAWAWWELGVAYAARGDYDRAIEYYQRALELDTNNAVAWARLGIAYAARGDYDRAIEYYQRALELDPNNEVARGALEYARRARRC
modifications: biotinylated (AviTag system)
B10: affinity ligand SEQ ID NO: 160 (designed binder)
chain: B9 chain with H40L, T76L, G117D
modifications: biotinylated (AviTag system)
B11: affinity ligand SEQ ID NO: 156 (designed binder)
chain: MAWAEFRQRLAAIRTRLEALGGSEAELAAFEREIAAFESELQAYAGAGNPEVEALRREAAAIRDELQAYRHNDEAERWYDLGAAYAARGDYDRAIEYYQRALEHDPNDAWAWWELGVAYAARGDYDRAIEYYQRALELDTNNAVAWARLGIAYAARGDYDRAIEYYQRALELDPNNEVARGALEYARRARRHHHHHH
modifications: biotinylated (AviTag system)
B12: affinity ligand SEQ ID NO: 161 (designed binder)
chain: B11 chain with H104L, T140L, G181D
modifications: biotinylated (AviTag system)

Molecular target: Herceptin Fab with a kappa light chain and binding specificity for Her2/neu (from the monoclonal antibody trastuzumab)
Test: BLI (ForteBio), biotinylated ligand on sensor, as in Example 2

Kd [nM] | Binder
41 | B1
51 | B2
28 | B3
15 | B4

Molecular target: dimeric human IgG-lambda (Southern Biotech, Birmingham AL)
Test: as above

Kd [nM] | Binder
< 1 | B1
< 1 | B2
< 1 | B3
3 | B4

Molecular target: Tremfya Fab with a lambda light chain and binding specificity for IL23 (from the monoclonal antibody guselkumab)
Test: as above

Kd [nM] | Binder
8 | B1
12 | B2
8 | B3
24 | B4

Molecular target: Praluent (IgG1 monoclonal antibody)
Test: BLI, biotinylated ligand on sensor; 'Binding affinity (nM)'

Kd [nM] | Binder
< 1 | B5
< 1 | B6
< 1 | B7
< 1 | B8
< 1 | B9
< 1 | B10
< 1 | B11
< 1 | B12

Molecular target: Ajovy (IgG2 monoclonal antibody)
Test: as above

Kd [nM] | Binder
270 | B5
665 | B6
117 | B7
282 | B8
436 | B9
543 | B10
224 | B11
654 | B12

Molecular target: Dupixent (IgG4 monoclonal antibody)
Test: as above

Kd [nM] | Binder
8 | B5
25 | B6
32 | B7
176 | B8
9 | B9
24 | B10
7 | B11
31 | B12

Molecular target: Herceptin Fab with a kappa light chain and binding specificity for Her2/neu (from the monoclonal antibody trastuzumab)
Test: BLI (ForteBio), biotinylated ligand on sensor, 1:1 fit

Kd [nM] | Binder
41 | B1
51 | B2
28 | B3

Molecular target: dimeric human IgG-lambda (Southern Biotech, Birmingham AL)
Test: as above

Kd [nM] | Binder
< 1 | B1
< 1 | B2
< 1 | B3

Molecular target: Tremfya Fab with a lambda light chain and binding specificity for IL23 (from the monoclonal antibody guselkumab)
Test: as above

Kd [nM] | Binder
8 | B1
12 | B2
8 | B3
